Experiments:
[1] = target: T1, trimethyl-K9 histone H3 peptide (acetyl-ARTKQTARmeKSTGGKAPRK-biotin)
T1 chain: ARTKQTARKSTGGKAPRK

[2] = target: T2, dimethyl-K9 histone H3 peptide (acetyl-ARTKQTARmeKSTGGKAPRK-biotin)
T2 chain: ARTKQTARKSTGGKAPRK

[3] = target: T3, histone H3 (1-18) peptide, H3K4me2 (Upstate 12-460), P68431
T3 chain: ARTKQTARKSTGGKAPRK

[4] = target: T4, histone H3 (1-18) peptide, H3K4me3 (Upstate 12-564), P68431
T4 chain: ARTKQTARKSTGGKAPRK

[5] = target: T5, histone H3 (1-18) peptide, H3K4me1 (Upstate 12-563), P68431
T5 chain: ARTKQTARKSTGGKAPRK

[6] = target: T6, histone H3 (1-18) peptide, di-methyl on lysine 9, P68431
T6 chain: ARTKQTARKSTGGKAPRK

[7] = target: T7, histone H3 (1-18) peptide, tri-methyl on lysine 9, P68431
T7 chain: ARTKQTARKSTGGKAPRK

[8] = target: T8, dimethyl-K36 histone H3 peptide (STGGV2mKKPHRY-C)
T8 chain: STGGVKKPHRYC

[9] = target: trimethyl-K36 histone H3 peptide

B1: recombinant Flag-JHDM2A (JmjC domain-containing histone demethylase 2A) (protein)
chain: MVLTLGESWPVLVGRRFLSLSAADGSDGSHDSWDVERVAEWPWLSGTIRAVSHTDVTKKDLKVCVEFDGESWRKRRWIEVYSLLRRAFLVEHNLVLAERKSPEISERIVQWPAITYKPLLDKAGLGSITSVRFLGDQQRVFLSKDLLKPIQDVNSLRLSLTDNQIVSKEFQALIVKHLDESHLLKGDKNLVGSEVKIYSLDPSTQWFSATVINGNPASKTLQVNCEEIPALKIVDPSLIHVEVVHDNLVTCGNSARIGAVKRKSSENNGTLVSKQAKSCSEASPSMCPVQSVPTTVFKEILLGCTAATPPSKDPRQQSTPQAANSPPNLGAKIPQGCHKQSLPEEISSCLNTKSEALRTKPDVCKAGLLSKSSQIGTGDLKILTEPKGSCTQPKTNTDQENRLESVPQALTGLPKECLPTKASSKAELEIANPPELQKHLEHAPSPSDVSNAPEVKAGVNSDSPNNCSGKKVEPSALACRSQNLKESSVKVDNESCCSRSNNKIQNAPSRKSVLTDPAKLKKLQQSGEAFVQDDSCVNIVAQLPKCRECRLDSLRKDKEQQKDSPVFCRFFHFRRLQFNKHGVLRVEGFLTPNKYDNEAIGLWLPLTKNVVGIDLDTAKYILANIGDHFCQMVISEKEAMSTIEPHRQVAWKRAVKGVREMCDVCDTTIFNLHWVCPRCGFGVCVDCYRMKRKNCQQGAAYKTFSWLKCVKSQIHEPENLMPTQIIPGKALYDVGDIVHSVRAKWGIKANCPCSNRQFKLFSKPASKEDLKQTSLAGEKPTLGAVLQQNPSVLEPAAVGGEAASKPAGSMKPACPASTSPLNWLADLTSGNVNKENKEKQPTMPILKNEIKCLPPLPPLSKSSTVLHTFNSTILTPVSNNNSGFLRNLLNSSTGKTENGLKNTPKILDDIFASLVQNKTTSDLSKRPQGLTIKPSILGFDTPHYWLCDNRLLCLQDPNNKSNWNVFRECWKQGQPVMVSGVHHKLNSELWKPESFRKEFGEQEVDLVNCRTNEIITGATVGDFWDGFEDVPNRLKNEKEPMVLKLKDWPPGEDFRDMMPSRFDDLMANIPLPEYTRRDGKLNLASRLPNYFVRPDLGPKMYNAYGLITPEDRKYGTTNLHLDVSDAANVMVYVGIPKGQCEQEEEVLKTIQDGDSDELTIKRFIEGKEKPGALWHIYAAKDTEKIREFLKKVSEEQGQENPADHDPIHDQSWYLDRSLRKRLHQEYGVQGWAIVQFLGDVVFIPAGAPHQVHNLYSCIKVAEDFVSPEHVKHCFWLTQEFRYLSQTHTNHEDKLQVKNVIYHAVKDAVAMLKASESSFGKP
demethylation of peptide substrate, mass spectrometry [1]: no demethylation was detected when a trimethyl-K9 peptide, that has the same sequence, was subjected to parallel analysis | demethylation of peptide substrate, mass spectrometry [2]: demethylation of a dimethyl-K9 peptide depends on the presence of JHDM2A and generated products with masses that correlate with both mono-methyl and unmethylated forms of the peptide

B2: recombinant Flag-RBP2 (Retinoblastoma Binding Protein 2, JARID1A) (protein)
chain: MAGVGPGGYAAEFVPPPECPVFEPSWEEFTDPLSFIGRIRPLAEKTGICKIRPPKDWQPPFACEVKSFRFTPRVQRLNELEAMTRVRLDFLDQLAKFWELQGSTLKIPVVERKILDLYALSKIVASKGGFEMVTKEKKWSKVGSRLGYLPGKGTGSLLKSHYERILYPYELFQSGVSLMGVQMPNLDLKEKVEPEVLSTDTQTSPEPGTRMNILPKRTRRVKTQSESGDVSRNTELKKLQIFGAGPKVVGLAMGTKDKEDEVTRRRKVTNRSDAFNMQMRQRKGTLSVNFVDLYVCMFCGRGNNEDKLLLCDGCDDSYHTFCLIPPLPDVPKGDWRCPKCVAEECSKPREAFGFEQAVREYTLQSFGEMADNFKSDYFNMPVHMVPTELVEKEFWRLVSSIEEDVIVEYGADISSKDFGSGFPVKDGRRKILPEEEEYALSGWNLNNMPVLEQSVLAHINVDISGMKVPWLYVGMCFSSFCWHIEDHWSYSINYLHWGEPKTWYGVPSHAAEQLEEVMRELAPELFESQPDLLHQLVTIMNPNVLMEHGVPVYRTNQCAGEFVVTFPRAYHSGFNQGYNFAEAVNFCTADWLPIGRQCVNHYRRLRRHCVFSHEELIFKMAADPECLDVGLAAMVCKELTLMTEEETRLRESVVQMGVLMSEEEVFELVPDDERQCSACRTTCFLSALTCSCNPERLVCLYHPTDLCPCPMQKKCLRYRYPLEDLPSLLYGVKVRAQSYDTWVSRVTEALSANFNHKKDLIELRVMLEDAEDRKYPENDLFRKLRDAVKEAETCASVAQLLLSKKQKHRQSPDSGRTRTKLTVEELKAFVQQLFSLPCVISQARQVKNLLDDVEEFHERAQEAMMDETPDSSKLQMLIDMGSSLYVELPELPRLKQELQQARWLDEVRLTLSDPQQVTLDVMKKLIDSGVGLAPHHAVEKAMAELQELLTVSERWEEKAKVCLQARPRHSVASLESIVNEAKNIPAFLPNVLSLKEALQKAREWTAKVEAIQSGSNYAYLEQLESLSAKGRPIPVRLEALPQVESQVAAARAWRERTGRTFLKKNSSHTLLQVLSPRTDIGVYGSGKNRRKKVKELIEKEKEKDLDLEPLSDLEEGLEETRDTAMVVAVFKEREQKEIEAMHSLRAANLAKMTMVDRIEEVKFCICRKTASGFMLQCELCKDWFHNSCVPLPKSSSQKKGSSWQAKEVKFLCPLCMRSRRPRLETILSLLVSLQKLPVRLPEGEALQCLTERAMSWQDRARQALATDELSSALAKLSVLSQRMVEQAAREKTEKIISAELQKAAANPDLQGHLPSFQQSAFNRVVSSVSSSPRQTMDYDDEETDSDEDIRETYGYDMKDTASVKSSSSLEPNLFCDEEIPIKSEEVVTHMWTAPSFCAEHAYSSASKSCSQGSSTPRKQPRKSPLVPRSLEPPVLELSPGAKAQLEELMMVGDLLEVSLDETQHIWRILQATHPPSEDRFLHIMEDDSMEEKPLKVKGKDSSEKKRKRKLEKVEQLFGEGKQKSKELKKMDKPRKKKLKLGADKSKELNKLAKKLAKEEERKKKKEKAAAAKVELVKESTEKKREKKVLDIPSKYDWSGAEESDDENAVCAAQNCQRPCKDKVDWVQCDGGCDEWFHQVCVGVSPEMAENEDYICINCAKKQGPVSPGPAPPPSFIMSYKLPMEDLKETS
demethylation of peptide substrate, mass spectrometry [3]: 80-90% demethylation of the modified substrate | demethylation of peptide substrate, mass spectrometry [4]: 80-90% demethylation of the modified substrate | demethylation of peptide substrate, mass spectrometry [5]: failed to catalyze removal of the mel modification state

B3: recombinant Flag-JHDM3A (JMJD2A) (protein)
chain: MASESETLNPSARIMTFYPTMEEFRNFSRYIAYIESQGAHRAGLAKVVPPKEWKPRASYDDIDDLVIPAPIQQLVTGQSGLFTQYNIQKKAMTVREFRKIANSDKYCTPRYSEFEELERKYWKNLTFNPPIYGADVNGTLYEKHVDEWNIGRLRTILDLVEKESGITIEGVNTPYLYFGMWKTSFAWHTEDMDLYSINYLHFGEPKSWYSVPPEHGKRLERLAKGFFPGSAQSCEAFLRHKMTLISPLMLKKYGIPFDKVTQEAGEFMITFPYGYHAGFNHGFNCAESTNFATRRWIEYGKQAVLCSCRKDMVKISMDVFVRKFQPERYKLWKAGKDNTVIDHTLPTPEAAEFLKESELPPRAGNEEECPEEDMEGVEDGEEGDLKTSLAKHRIGTKRHRVCLEIPQEVSQSELFPKEDLSSEQYEMTECPAALAPVRPTHSSVRQVEDGLTFPDYSDSTEVKFEELKNVKLEEEDEEEEQEAAALDLSVNPASVGGRLVFSGSKKKSSSSLGSGSSRDSISSDSETSEPLSCRAQGQTGVLTVHSYAKGDGRVTVGEPCTRKKGSAARSFSERELAEVADEYMFSLEENKKSKGRRQPLSKLPRHHPLVLQECVSDDETSEQLTPEEEAEETEAWAKPLSQLWQNRPPNFEAEKEFNETMAQQAPHCAVCMIFQTYHQVEFGGFNQNCGNASDLAPQKQRTKPLIPEMCFTSTGCSTDINLSTPYLEEDGTSILVSCKKCSVRVHASCYGVPPAKASEDWMCSRCSANALEEDCCLCSLRGGALQRANDDRWVHVSCAVAILEARFVNIAERSPVDVSKIPLPRFKLKCIFCKKRRKRTAGCCVQCSHGRCPTAFHVSCAQAAGVMMQPDDWPFVVFITCFRHKIPNLERAKGALQSITAGQKVISKHKNGRFYQCEVVRLTTETFYEVNFDDGSFSDNLYPEDIVSQDCLQFGPPAEGEVVQVRWTDGQVYGAKFVASHPIQMYQVEFEDGSQLVVKRDDVYTLDEELPKRVKSRLSVASDMRFNEIFTEKEVKQEKKRQRVINSRYREDYIEPALYRAIME
demethylation of peptide substrate, mass spectrometry [6]: no demethylation was observed on a di-methyl H3K9 peptide | demethylation of peptide substrate, mass spectrometry [7]: the trimethyl-K9 peptide was converted to a dimethyl-K9 peptide

B4: recombinant Flag-JHDM1A (FBXL11) (protein)
chain: MEPEEERIRYSQRLRGTMRRRYEDDGISDDEIEGKRTFDLEEKLHTNKYNANFVTFMEGKDFNVEYIQRGGLRDPLIFKNSDGLGIKMPDPDFTVNDVKMCVGSRRMVDVMDVNTQKGIEMTMAQWTRYYETPEEEREKLYNVISLEFSHTRLENMVQRPSTVDFIDWVDNMWPRHLKESQTESTNAILEMQYPKVQKYCLMSVRGCYTDFHVDFGGTSVWYHIHQGGKVFWLIPPTAHNLELYENWLLSGKQGDIFLGDRVSDCQRIELKQGYTFVIPSGWIHAVYTPTDTLVFGGNFLHSFNIPMQLKIYNIEDRTRVPNKFRYPFYYEMCWYVLERYVYCITNRSHLTKEFQKESLSMDLELNGLESGNGDEEAVDREPRRLSSRRSVLTSPVANGVNLDYDGLGKTCRSLPSLKKTLAGDSSSDCSRGSHNGQVWDPQCAPRKDRQVHLTHFELEGLRCLVDKLESLPLHKKCVPTGIEDEDALIADVKILLEELANSDPKLALTGVPIVQWPKRDKLKFPTRPKVRVPTIPITKPHTMKPAPRLTPVRPAAASPIVSGARRRRVRCRKCKACVQGECGVCHYCRDMKKFGGPGRMKQSCVLRQCLAPRLPHSVTCSLCGEVDQNEETQDFEKKLMECCICNEIVHPGCLQMDGEGLLNEELPNCWECPKCYQEDSSEKAQKRKMEESDEEAVQAKVLRPLRSCDEPLTPPPHSPTSMLQLIHDPVSPRGMVTRSSPGAGPSDHHSASRDERFKRRQLLRLQATERTMVREKENNPSGKKELSEVEKAKIRGSYLTVTLQRPTKELHGTSIVPKLQAITASSANLRHSPRVLVQHCPARTPQRGDEEGLGGEEEEEEEEEEEDDSAEEGGAARLNGRGSWAQDGDESWMQREVWMSVFRYLSRRELCECMRVCKTWYKWCCDKRLWTKIDLSRCKAIVPQALSGIIKRQPVSLDLSWTNISKKQLTWLVNRLPGLKDLLLAGCSWSAVSALSTSSCPLLRTLDLRWAVGIKDPQIRDLLTPPADKPGQDNRSKLRNMTDFRLAGLDITDATLRLIIRHMPLLSRLDLSHCSHLTDQSSNLLTAVGSSTRYSLTELNMAGCNKLTDQTLIYLRRIANVTLIDLRGCKQITRKACEHFISDLSINSLYCLSDEKLIQKIS
demethylation of peptide substrate, mass spectrometry [8]: revealed the generation of mono- and unmethylated forms of the peptide in a JHDM1A-dependent manner | demethylation of peptide substrate, mass spectrometry [9]: we did not detect any demethylation when a trimethyl-K36 peptide was subjected to a parallel reaction (data not shown)

From patent US20160244802
